Reference: patent US20120141505A1 (published 2012)

Tests used:
[1] = target: T1, CD19 co-receptor on CD19+ human B-lineage ALL cells (primary leukemic cells; NALM-6 cell line) (human, UniProt P15391 20-556); experiment: deconvolution microscopy, biotin-labeled CD19-L plus Avidin-FITC
T1 construct: Endogenous CD19 on leukemia cells
T1 sequence: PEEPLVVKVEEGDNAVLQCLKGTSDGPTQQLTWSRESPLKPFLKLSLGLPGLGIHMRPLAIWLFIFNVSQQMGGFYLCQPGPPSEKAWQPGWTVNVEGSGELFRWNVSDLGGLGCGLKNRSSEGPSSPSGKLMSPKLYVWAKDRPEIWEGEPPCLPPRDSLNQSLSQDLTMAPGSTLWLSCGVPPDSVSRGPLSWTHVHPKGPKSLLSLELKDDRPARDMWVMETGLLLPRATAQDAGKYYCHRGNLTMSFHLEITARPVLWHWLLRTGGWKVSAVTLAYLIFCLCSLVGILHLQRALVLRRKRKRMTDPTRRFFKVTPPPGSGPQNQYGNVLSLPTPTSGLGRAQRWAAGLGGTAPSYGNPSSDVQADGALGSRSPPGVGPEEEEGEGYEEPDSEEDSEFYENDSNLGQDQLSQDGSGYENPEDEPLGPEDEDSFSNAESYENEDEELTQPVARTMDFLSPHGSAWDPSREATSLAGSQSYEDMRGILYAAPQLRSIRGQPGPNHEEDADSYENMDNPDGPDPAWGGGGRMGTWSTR
Method: Deconvolution microscopy was performed using the Deltavision deconvolution system from Applied Precision which consists of a Nikon TE200 inverted microscope outfitted for epifluorescence and fitted with an Applied Precision nanomover stage for precise control of the stage. Image collection was through a Photometrics CH350/L liquid cooled CCD camera. The system was controlled by SoftWoRx imaging software run on a Silicon Graphics O2 workstation.
(§1) Binding of biotin-labeled soluble CD19-L protein to the surface of CD19 co-receptor positive cells was examined using immunofluorescence staining combined with flow cytometry and deconvolution microscopy.

[2] = target: T2, human CD19 expressed on transfected DT40 chicken B-lymphoma cells (DT40hCD19+) (human, UniProt P15391 20-556); experiment: flow cytometry, biotin-labeled CD19-L plus Avidin-FITC
T2 construct: Human CD19 cDNA under a chicken actin promoter (pApuro) in DT40 cells; also called human CD19 co-receptor
T2 sequence: T1 sequence
From the text: as §1

- binding result [1]: binds
- binding result [2]: binds
B1: biotin-labeled soluble recombinant human CD19-L protein (ligand)
chain: MYMSMTEPSQDYVPASQSYPGPSLESEDFNIPPITPPSLQDHSLVHLNEVESGYHSLCHPMNHNGLLPFHPQNMDLPEITVSNMLGQDGTLLSNSISVMPDIRNPEGTQYSSHPQMAAMRPRGQPAQIRQQPGMMPHGQLTTINQSQLSAQLGLNMGGSNVPHNSPSPPGSKSATPSPSSSVHEDEGDDTSKINGGEKRPASDMGKKPKTPKKKKKKDPNEPQKPVSAYALFFRDTQAAIKGQNPNATFGEVSKIVASMWDGLGEEQKQVYKKKTEAAKKEYLKQLAAYRASLVSKSYSEPVDVKTSQPPQLINSKPSVFHGPSQAHSALYLSSHYHQQPGMNPHLTAMHPSLPRNIAPKPNNQMQVTVSIANMAVSPPPPLQISPPLHQHLNMQQHQPLTMQQPLGNQLPMQVQSALHSPTMQQGFTLQPDYQTIINPTSTAAQVVTQAMEYVRSGCRNPPPQPVDWNNDYCSSGGMQRDKALYLT
modifications: biotin-labeled (sites not given) ; Biotin-labelled; sites and chemistry not stated.
notes: Same recombinant protein as m1, labelled with biotin and detected with Avidin-FITC; also called biotin-labeled CD19-L; biotin-labeled soluble CD19-L protein; not shown: N-terminal pFastBacHT leader (6xHis tag, spacer region, rTEV cleavage site)
